The values below come from patent US20180215829A1 (CRESCENDO BIOLOGICS, published 2018).

Substitutions are numbered along the chain they refer to. Where two headings read alike, the source gives them in different places.

For assay [1], the target named is T1, human IL-17RA on HT1080 cells (human, UniProt Q96F46 33-866).
T1 sequence: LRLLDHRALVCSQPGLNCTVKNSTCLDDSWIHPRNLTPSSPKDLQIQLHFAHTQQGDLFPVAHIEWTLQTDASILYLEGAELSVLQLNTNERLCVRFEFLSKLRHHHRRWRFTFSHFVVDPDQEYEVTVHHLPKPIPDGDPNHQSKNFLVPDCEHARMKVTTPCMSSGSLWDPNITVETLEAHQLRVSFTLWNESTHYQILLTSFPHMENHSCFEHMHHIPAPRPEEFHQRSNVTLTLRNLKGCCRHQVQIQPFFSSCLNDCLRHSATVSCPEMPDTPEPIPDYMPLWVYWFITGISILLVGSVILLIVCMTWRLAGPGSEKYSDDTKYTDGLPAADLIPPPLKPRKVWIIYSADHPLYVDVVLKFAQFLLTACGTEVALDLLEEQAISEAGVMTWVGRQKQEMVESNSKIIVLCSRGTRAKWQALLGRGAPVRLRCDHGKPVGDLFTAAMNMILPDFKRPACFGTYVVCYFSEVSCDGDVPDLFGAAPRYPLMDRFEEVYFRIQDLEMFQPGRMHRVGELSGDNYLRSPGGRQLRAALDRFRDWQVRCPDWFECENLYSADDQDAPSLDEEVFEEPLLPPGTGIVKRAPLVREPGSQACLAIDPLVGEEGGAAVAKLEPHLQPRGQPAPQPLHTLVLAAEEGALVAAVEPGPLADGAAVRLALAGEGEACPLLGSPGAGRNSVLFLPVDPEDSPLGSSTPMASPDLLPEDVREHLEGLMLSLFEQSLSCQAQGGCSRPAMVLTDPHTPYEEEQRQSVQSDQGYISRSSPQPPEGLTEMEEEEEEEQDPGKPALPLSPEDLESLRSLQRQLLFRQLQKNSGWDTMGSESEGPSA
The assay can be described thus: cell-based or functional assay.

In assay [2] the target is T2, recombinant human IL-17RA Fc fusion protein (R&D Systems 177-IR-100) (human, UniProt Q96F46 33-320).
T2 construct: Bought protein; not shown: Fc domain of human IgG1
T2 sequence: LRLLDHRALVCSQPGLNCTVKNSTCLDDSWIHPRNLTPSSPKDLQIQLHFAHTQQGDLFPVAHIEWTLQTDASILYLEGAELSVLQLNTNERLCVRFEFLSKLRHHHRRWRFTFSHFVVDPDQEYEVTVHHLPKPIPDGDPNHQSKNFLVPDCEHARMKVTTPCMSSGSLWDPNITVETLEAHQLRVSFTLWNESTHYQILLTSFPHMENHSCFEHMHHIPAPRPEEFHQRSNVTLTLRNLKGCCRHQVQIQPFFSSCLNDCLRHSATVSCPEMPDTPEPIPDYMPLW
Put plainly: BIAcore T200 single-cycle kinetics, IL-17RA-Fc captured on protein G chip, VH as analyte. As to the method: (§1) Binding kinetics of anti-IL-17RA VH antibodies were measured on a BIAcore® T200 instrument. For IL-17RA, first a protein G chip was prepared by diluting protein G to 20 ug/ml in acetate buffer, pH 4 (BIAcore®, cat# BR-100-49) and then coupled 1200 RU to a CM5 Series S chip using amine coupling chemistry. This surface was then used to capture IL-17RA Fc fusion protein from solution: IL-17RA at 10 ug/ml in HBS injected for 10 seconds at 30 ul/min flow rate would capture approximately 100-150 RU of IL-17RA onto the protein G surface.
(§2) Binding kinetics of anti-IL-17RA VH antibodies were determined by single-cycle kinetics. VH antibodies were prepared in dilution series (typically 1:3 dilution series starting with 100 nM VH at the highest concentration), and then injected over the antigen coated surfaces and also a blank surface, starting with the lowest concentration of VH and then working progressively up to the highest concentration. VH binding kinetics were then determined from the (blank subtracted) sensorgram traces using 1:1 binding models and BIAevaluation software.
For orientation: In SPR one partner is held on a chip, and binding of the other changes the refractive index at the surface.

Assay [3] concerns the target T2, recombinant human IL-17RA Fc fusion …. The assay can be described thus: IL-17RA ligand inhibition ELISA (FIG. 10B): VH competes with IL-17A for coated IL-17RA-Fc. How it is done:
(§3) VH, both purified and crude periplasmic extracts, were also tested for their ability to inhibit the interaction of IL-17A with recombinant IL-17RA-Fc. […] Following washing of excess coating antigen, as described above, the wells of the plate were incubated with 3% Marvel/PBS to block non-specific protein interactions. VH preparations, crude periplasmic extracts or purified VH, or suitable controls, were prepared with 1 nM recombinant IL-17A (Peprotech, cat# AF-200-17) in 3% skimmed milk powder/PBS solution in polypropylene plates or tubes. The mixture was then transferred to the assay plate and incubated for 1 hour at room temperature. Excess protein was removed by washing and bound IL-17A was detected by incubation with biotinylated anti-IL-17A Mab (R & D Systems, cat BAF317) followed by the addition of neutravidin-HRP (Pierce, cat#31030) and TMB substrate (Sigma, cat# T0440). The TMB reaction was stopped by addition of 0.5M H₂SO₄ and absorbances were measured at 450 nm in a plate reader.

Assay [4] addresses T1, human IL-17RA on HT1080 cells. Put plainly: cell-based or functional assay. The source holds these as a separate data set.
In another assay the target is T3, IL-17RD (UniProt Q8NFM7 17-299, limits assumed).
T3 sequence (looked up): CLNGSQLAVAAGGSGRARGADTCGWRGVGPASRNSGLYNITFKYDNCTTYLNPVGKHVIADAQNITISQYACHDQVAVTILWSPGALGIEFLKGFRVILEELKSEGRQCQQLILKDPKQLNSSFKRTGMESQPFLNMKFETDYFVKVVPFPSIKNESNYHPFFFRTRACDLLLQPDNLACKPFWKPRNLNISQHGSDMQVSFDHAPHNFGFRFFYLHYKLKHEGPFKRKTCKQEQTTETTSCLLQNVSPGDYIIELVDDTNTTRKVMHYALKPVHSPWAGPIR
The assay can be described thus: specificity ELISA, antigen coated, anti-His-HRP detection. How it is done: (§4) The binding ELISA for crude or purified VH was similar to the serum ELISA and phage ELISA, previously described, mostly differing in the final detection steps. Briefly, antigen was immobilised on maxisorb plates (Nunc 443404) by adding 50 ul volumes at 0.1-1 ug/ml in PBS and incubating at 4° C. overnight. Following coating, the antigen solution was aspirated and the plates were washed using PBS (prepared from PBS tablets, Oxoid cat no. BR0014G) supplemented with 0.05% Tween® 20 (sigma P1379), followed by washes with PBS without added Tween®. To block non-specific protein interactions, a solution of 3% skimmed milk powder (Marvel) in PBS was added to the wells and the plate was incubated for at least one hour at room temperature. Dilutions of periplasmic extract or purified VH in 3% Marvel/PBS were prepared in polypropylene tubes or plates and incubated for at least one hour at room temperature prior to transfer to the blocked ELISA plate where a further incubation of at least one hour took place. Unbound protein was then washed away using repetitive washes with PBS/Tween® followed by PBS. A solution of HRP-conjugated anti-His Ab (Miltenyi Biotec, 130-092-785), prepared at 1:1000 dilution in PBS/3% Marvel was then added to each well and a further incubation at room temperature for at least one hour took place. Unbound detection antibody was removed by repeated washing using PBS/Tween® and PBS. The ELISA was then developed using TMB substrate (Sigma cat. no. T0440) and the reaction was stopped after 10 minutes by the addition of 0.5M H₂SO₄ solution (Sigma cat. no. 320501). Absorbances were determined by reading at 450 nm.
Background: ELISA stands for enzyme-linked immunosorbent assay.

Another assay addresses T4, IL-17RB (UniProt Q9NRM6 18-289, limits assumed).
T4 sequence (looked up): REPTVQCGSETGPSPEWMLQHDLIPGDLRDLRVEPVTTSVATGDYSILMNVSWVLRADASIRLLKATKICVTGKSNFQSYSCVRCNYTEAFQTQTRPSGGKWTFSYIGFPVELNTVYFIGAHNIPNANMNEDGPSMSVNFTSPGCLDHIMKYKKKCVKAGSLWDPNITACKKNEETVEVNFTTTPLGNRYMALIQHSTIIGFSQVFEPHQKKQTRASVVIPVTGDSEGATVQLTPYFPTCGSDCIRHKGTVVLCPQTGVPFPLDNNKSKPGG
The assay is described as above. How it is done:
as §4

Assay [5] concerns the target T2, recombinant human IL-17RA Fc fusion …. Put plainly: receptor/ligand biochemical inhibition ELISA: VH competes with 1 nM IL-17A for coated IL-17RA-Fc. How it is done:
as §3

In assay [6] the target is T1, human IL-17RA on HT1080 cells. The assay can be described thus: cell-based or functional assay. The source holds these as a separate data set.
The target of assay [7] is T2, recombinant human IL-17RA Fc fusion …. The assay can be described thus: BIAcore T200 single-cycle kinetics, IL-17RA-Fc captured on protein G chip, VH as analyte. How it is done: as §1, §2
This is another data set of the same source.

Assay [8] shares this target. The assay can be described thus: receptor/ligand biochemical inhibition ELISA: VH competes with 1 nM IL-17A for coated IL-17RA-Fc. How it is done: as §3
This is another data set of the same source.

B1: VH clone 6.1 (VHH)
VHH: EVQLVESGGGLVKPGGSLRLSCAASGFTFSDDYMSWLRQAPGKGLEWVSYISSSGSTIYYADSVKGRFTISRDNAKNSLYLQMNSLRAEDSAVYYCARKDITNIAVGSLGYWGQGTLVTVSS
notes: Human VH single domain antibody, no light chain; Parent clone of family 6
By Kd is commonly meant a measure of binding affinity in units of concentration. As for B1, the “Cell assay IC50” value in [1] came out at 233 nM. Moreover, in assay [2], the equilibrium dissociation constant (Kd) came to 31 nM.

B2: VH clone 4.1 (VHH)
VHH: QVQLVQSGAEVKKPGASVKVSCKASGYPFTNYDISWIRQATGQSLEWMGWMNPDSGNTGYAQKFQGRVTMTRNTSISTAYMELSGLRSEDTAVYFCARGGYNAWRTDYWGQGTLVTVSS
notes: Human VH single domain antibody, no light chain; Parent clone of family 4
Take B2: the “Cell assay IC50” value in [1] came out at 282 nM. Moreover, the Kd in assay [2] is 4.5 nM.

B3: VH clone 4.55 (VHH)
VHH: QVQLQQSGAEVKKPGASVKVSCKASGYTFTSYDISWVRQATGQSLEYMGWMNPNSGNTGYAQKFQGRVTMTRNTSISTAYMELSSLRSEDTAVYYCARGGITEWRRDYWGQGTLVTVSS
notes: Human VH single domain antibody, no light chain; Family 4
Usually IC50 stands for the point on the concentration scale where inhibition reaches its midpoint. For the molecule B3, the 50% inhibitory concentration (IC50) in assay [3] is 6930 nM.

B4: VH clone 1.2 (VHH)
VHH: EVQLVESGGGLVQPGRSLRLSCAASGFTFDDYAMHWVRQAPGKGLEWVSGISWNSGRMDYADSVKGRFTISRDNAKNSLYLQMNSLRAEDTALYYCAKEKGLGYCRGGSCSYFDYRGQGTLVTVSS
notes: Human VH single domain antibody, no light chain; Family 1; also called VH 1.2
Regarding B4, the “IC50 (nM), cell-based assay” value in [4] amounted to 141 nM. The binding result with IL-17RD and with IL-17RB was “no binding” in each case.

B5: VH clone 1.1 (VHH)
VHH: B4 VHH with E1Q, N77K, L93M, Y104F
notes: Human VH single domain antibody, no light chain; Parent clone of family 1; also called VH 1.1
Turning to B5, the “IC50 (nM), cell-based assay” value in assay [4] is 39 nM. Also, the binding result with IL-17RD and with IL-17RB was “no binding” each time. The “Cell assay IC50” value in assay [1] is 4.7 nM. In addition, the Kd in assay [2] was determined as 0.063 nM.

B6: VH clone 7.1 (VHH)
VHH: EVQLVESGGGLVQPGGSLRLSCAASGFTFSNYWMSWVRQARGKGLEWVANIRPDGSERYYVDSVKGRFTISRDNAKNSLYLQMSSLRAEDTAVYYCARSRDWGSRAFDIWGQGTMVTVSS
notes: Human VH single domain antibody, no light chain; Parent clone of family 7
Turning to B6, the “Cell assay IC50” value in assay [1] was 1840 nM. Besides, the Kd in assay [2] was 370 nM.

B7: VH 62A4 (VHH)
VHH: QVQLVESGGGLVQPGRSLTLSCTASGFTFHDYAMHWVRQPPGGGLEWVAGVSWNGNNVGYADSVKGRFTISRDNAKKSLYLQMNSLRSEDTALYYCAKGGMGSGSHPDSFSTWGQGTMVTVSS
notes: VH single domain
Regarding B7, the binding result with IL-17RD and with IL-17RB was “no binding” throughout.

B8: VH clone 2.3 (VHH)
VHH: QVQLVQSGAEVKKPGASVKVSCKASGYPFTSYDINWVRQATGRSLEWMGWMNPTSGDTVYAQKFQDRVTMTRNTSISTAYMELSSLRSEDTAVYFCARGRRDNWKNNYWGQGTLVTVSS
notes: Human VH single domain antibody, no light chain; Optimised variant of clone 2.1
By koff is commonly meant the first-order rate constant of dissociation. What is called kon is the rate constant with which the complex forms. For the molecule B8, the half-maximal inhibitory concentration (IC50) in assay [5] worked out at 1.3 nM. Further, the “Cell assay IC50” value in [6] stood at 118 nM. Also, in assay [7], the Kd worked out at 2.5 nM, the koff came to 0.00137 s⁻¹ and the kon was determined as 555000 M⁻¹ s⁻¹.

B9: VH clone 5.1 (VHH)
VHH: EVQLVESGGGLVKPGGSLRLSCEASGFTFSDFDMSWIRQAPGKGLEWVAYISSSDSTIYYRDSVKGRFTISRDNAKNSLYLQMNSLRAEDTAVYYCSRNGARYNWNYGDFQHWGQGTLVTVSS
notes: Human VH single domain antibody, no light chain; Parent clone of family 5
As for B9, in assay [8], the IC50 came to 80 nM. Moreover, the “Cell assay IC50” value in assay [1] came to 73 nM. The Kd in assay [2] turned out to be 41 nM.

B10: VH clone 3.1 (VHH)
VHH: EVQLVESGGGLVQPGGSLRLSCAASGFPFSTYWMRWLRQAPGKGLEWVANINQDGSEKYYVDSVKGRFTISRDNAKSSLFLQMNSLRAEDTAVYYCARGWESGWFEPWGQGTLVTVSS
notes: Human VH single domain antibody, no light chain; Parent clone of family 3; also called VH 3.1
Take B10: the 50% inhibitory concentration (IC50) in [8] came to 11 nM. In assay [2], the Kd was 9.6 nM.
